Data: article PMC11895441

Molecular target: human complement Factor H (human) (UniProt P08603)
Experiment: SPR; Biacore X100 Plus; human FH captured by immobilised anti-FH mAb (Q254) on CM5; refolded NspA as analyte, five 3.16-fold dilutions from 10 µM, single-cycle kinetics; 10 mM HEPES, 150 mM NaCl, 3 mM EDTA, 0.005% P-20, pH 7.4; 1:1 model; apparent KD

Chain of UniProt P08603 (P08603 19-1231): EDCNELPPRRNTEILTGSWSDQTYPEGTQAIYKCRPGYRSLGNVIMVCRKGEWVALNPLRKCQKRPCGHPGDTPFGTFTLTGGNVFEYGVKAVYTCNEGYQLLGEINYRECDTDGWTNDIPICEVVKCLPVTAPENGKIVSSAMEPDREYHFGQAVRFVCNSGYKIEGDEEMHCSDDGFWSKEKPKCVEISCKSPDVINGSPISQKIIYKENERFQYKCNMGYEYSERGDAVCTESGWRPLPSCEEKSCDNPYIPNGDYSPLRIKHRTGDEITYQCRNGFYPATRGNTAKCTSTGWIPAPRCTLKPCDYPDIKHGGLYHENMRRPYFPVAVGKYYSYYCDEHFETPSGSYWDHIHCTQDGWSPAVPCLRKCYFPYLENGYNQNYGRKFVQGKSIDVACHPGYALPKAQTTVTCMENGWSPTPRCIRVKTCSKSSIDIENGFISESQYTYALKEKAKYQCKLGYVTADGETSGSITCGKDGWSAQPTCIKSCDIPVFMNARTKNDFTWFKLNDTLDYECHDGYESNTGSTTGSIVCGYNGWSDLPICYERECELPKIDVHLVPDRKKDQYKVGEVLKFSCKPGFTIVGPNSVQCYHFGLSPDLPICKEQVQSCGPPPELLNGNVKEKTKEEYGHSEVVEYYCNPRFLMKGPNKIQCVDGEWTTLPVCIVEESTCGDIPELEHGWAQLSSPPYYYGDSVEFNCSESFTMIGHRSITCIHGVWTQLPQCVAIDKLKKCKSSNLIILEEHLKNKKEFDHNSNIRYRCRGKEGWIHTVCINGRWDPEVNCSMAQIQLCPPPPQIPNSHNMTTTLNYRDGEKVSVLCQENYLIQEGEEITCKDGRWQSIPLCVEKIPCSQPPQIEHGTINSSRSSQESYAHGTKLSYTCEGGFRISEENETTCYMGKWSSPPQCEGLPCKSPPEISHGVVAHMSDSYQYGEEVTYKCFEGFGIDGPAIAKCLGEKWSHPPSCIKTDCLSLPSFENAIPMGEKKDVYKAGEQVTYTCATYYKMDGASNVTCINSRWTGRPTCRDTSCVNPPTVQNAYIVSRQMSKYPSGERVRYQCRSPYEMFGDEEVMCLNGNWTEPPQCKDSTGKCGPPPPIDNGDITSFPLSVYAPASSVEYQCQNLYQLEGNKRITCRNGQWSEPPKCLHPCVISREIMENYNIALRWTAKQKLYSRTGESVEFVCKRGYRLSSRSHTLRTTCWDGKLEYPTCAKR

purified, refolded NspA from N. meningitidis strain 8047, wild type, without signal sequence (natural protein)
Kd: 24.8 nM
koff: 0.000608 s⁻¹
kon: 25100 M⁻¹ s⁻¹
